Measurements published in IntAct's records for PubMed 24165324.

Target: gsk3b_human GSK3B (UniProt P49841)
Sequence of UniProt P49841 (P49841 whole entry, looked up): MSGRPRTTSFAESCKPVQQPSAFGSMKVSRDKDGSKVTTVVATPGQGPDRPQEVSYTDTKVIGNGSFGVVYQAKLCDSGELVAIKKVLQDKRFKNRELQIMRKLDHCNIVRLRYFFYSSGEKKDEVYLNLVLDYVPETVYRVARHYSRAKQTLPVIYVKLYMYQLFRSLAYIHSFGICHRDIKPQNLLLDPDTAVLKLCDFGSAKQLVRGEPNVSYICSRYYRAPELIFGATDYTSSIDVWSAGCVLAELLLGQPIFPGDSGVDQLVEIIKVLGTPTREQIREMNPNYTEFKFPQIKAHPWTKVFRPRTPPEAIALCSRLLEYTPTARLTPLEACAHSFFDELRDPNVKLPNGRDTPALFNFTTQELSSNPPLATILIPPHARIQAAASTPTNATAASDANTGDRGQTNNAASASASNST

## Leucine-rich repeat serine/threonine-protein kinase 2 (Homo sapiens), Q5S007 G2019S
  effect of a mutation on the interaction: increasing interaction
